Source: US10801046B2, “Methods and materials for biosynthesizing multifunctional, multivariate molecules via carbon chain modification” (INVISTA NORTH AMERICA S.A.R.L., priority 2016, dated 2020)

What was measured:
[1] = tested on: heptanedioyl-[acp] or heptanedioyl-[acp] methyl ester; experiment: Thioesterase enzyme activity assay, release of holo-ACP monitored by absorbance at 412 nm; assay type: biochemical; settings: purified thioesterase, 37° C., 30 min, FIG. 41
Experimental: The thioesterases were expressed and purified following procedures disclosed herein. The enzyme activity assay was performed in duplicate or triplicate in a buffer having heptanedioyl-[acp] or heptanedioyl-[acp] methyl ester as substrate. The enzyme activity assay reaction was initiated by adding purified thioesterase gene products to the assay buffer and incubating at 37° C. for 30 min. The release of holo-ACP was monitored by absorbance at 412 nm. The absorbance associated with the empty vector control is very low. Many of the gene products of thioesterases accepted heptanedioyl-[acp] or heptanedioyl-[acp] methyl ester as substrate as confirmed via relative spectrophotometry (see FIG. 41).

heptanedioyl-ACP = assay type: cell-based, Escherichia coli; settings: top 150 hits screened in vivo
[2] = Carboxylate reductase activity, N7-acetyl-7-aminoheptanoate to N7-acetyl-7-aminoheptanal, NADPH consumption at 340 nm; assay type: biochemical; settings: enhanced by gene product of sfp, 2 mM substrate, 20 min, against empty vector control, FIG. 45
Experimental: The activity of each of the N-terminal His-tagged carboxylate reductases of SEQ ID NOs: 29 (GenBank Accession No. ABK71854.1), 37 (Genbank Accession No. EIV11143.1), and 38 (GenBank Accession No. ADG98140.1) (see Examples 4) for converting N7-acetyl-7-aminoheptanoate to N7-acetyl-7-aminoheptanal was assayed in triplicate in a buffer composed of a final concentration of 50 mM HEPES buffer (pH=7.5), 2 mM N7-acetyl-7-aminoheptanoate, 10 mM MgCl2, 1 mM ATP, and 1 mM NADPH. The assays were initiated by adding purified carboxylate reductase and phosphopantetheine transferase or the empty vector control to the assay buffer containing the N7-acetyl-7-aminoheptanoate then incubated at room temperature for 20 min. The consumption of NADPH was monitored by absorbance at 340 nm.

[3] = Carboxylate reductase activity, 7-hydroxyheptanoate to 7-hydroxyheptanal, NADPH consumption at 340 nm; assay type: biochemical; settings: enhanced by gene product of sfp, 20 min, against empty vector control, FIG. 44
Experimental: A sequence encoding a His-tag was added to the genes from Mycobacterium marinum, Mycobacterium smegmatis, Segniliparus rugosus, Mycobacterium smegmatis, Mycobacterium massiliense, and Segniliparus rotundus that encode the carboxylate reductases of SEQ ID NOs: 25 (GenBank Accession No. ACC40567.1), 27 (GenBank Accession No. ABK75684.1), 29 (GenBank Accession No. ABK71854.1), 31 (GenBank Accession No. EFV11917.1), 37 (GenBank Accession No. EIV11143.1), and 38 (GenBank Accession No. ADG98140.1) such that N-terminal HIS tagged carboxylate reductases could be produced. Each of the modified genes was cloned into a pET Duet expression vector alongside a sfp gene encoding a His-tagged phosphopantetheine transferase from Bacillus subtilis, both under control of the T7 promoter.
Each expression vector was transformed into a BL21[DE3] E. coli host and the resulting recombinant E. coli strains were cultivated at 37° C. in a 250 mL shake flask culture containing 50 mL LB media and antibiotic selection pressure, with shaking at 230 rpm. Each culture was induced overnight at 37° C. using an auto-induction media.
The pellet from each induced shake flask culture was harvested via centrifugation. Each pellet was resuspended and lysed via sonication. The cell debris was separated from the supernatant via centrifugation. The carboxylate reductases and phosphopantetheine transferase were purified from the supernatant using Ni-affinity chromatography, diluted 10-fold into 50 mM HEPES buffer (pH=7.5) and concentrated via ultrafiltration.
Enzyme activity (i.e., 7-hydroxyheptanoate to 7-hydroxyheptanal) assays were performed in triplicate in a buffer composed of a final concentration of 50 mM HEPES buffer (pH=7.5), 2 mM […], 10 mM MgCl2, 1 mM ATP, and 1 mM NADPH. Each enzyme activity assay reaction was initiated by adding purified carboxylate reductase and phosphopantetheine transferase or the empty vector control to the assay buffer containing the 7-hydroxyheptanoate and then incubated at room temperature for 20 min. The consumption of NADPH was monitored by absorbance at 340 nm.

Row | Molecule | synthesis of holo-ACP using heptanedioyl-[acp] methyl ester as substrate, compared to using heptanedioyl-[acp] as substrate [1] | activity toward heptanedioyl-ACP in vivo (heptanedioyl-ACP) | acceptance of N7-acetyl-7-aminoheptanoate as substrate, forming N7-acetyl-7-aminoheptanal [2] | acceptance of 7-hydroxyheptanoate as substrate, forming 7-hydroxyheptanal [3]
1 | 14 TE: Paenibacillus lactis thioesterase (protein, Paenibacillus lactis 154, Paenibacillus lactis thioesterase) MVEKWTETYTIQSVDADFRGDCRWSSLLSIMQRAADKHIEALGIDREEMIERGLGWMLITLEADMTSIPRDMETIHVETWSRGSKGVLWHRDYRIMNDHGEQVGGARSVWTLVDIQKRKILRPSMFPYDVPIGQDSVGELPSKAVLPEGIELGEAYTTVVRYSGIDVNGHLNNARYADLCMDVLDEPELQGDKVTGFKITYNHEARLKDTIIVRRSGEIEGRIFVQGVSPEGTNFFEAALVKRKQ | more efficiently |  |  | 
2 | 11TE: Bacillus coagulans thioesterase (protein, Bacillus coagulans (strain 2-6), Bacillus coagulans thioesterase) MANGSSLYKGQYHIELRDVDFTKKLKLSALFSLFQDIASLAAEDLGYGIETLEKKYKVAWILTRIRVDILRHPTWDENITIETWPLQPSKIDFDRDFLVKDHTGAVIIKAASKWVVMGLNDRKIKRTESINIHYPENRTERAIEGKFGKFKDFGGLEPAYQKVIGYSDIDFNGHLNNSKYVDYIMDCFLPDFHKRHPIHTIEINFNQEALPGDSITLYKDISKMDEHELYVEGVNQTDHHTIFKSHITIH | more efficiently | displayed considerable activity toward heptanedioyl-ACP |  | 
3 | 5TE: Lactobacillus brevis thioesterase (protein, Lactobacillus brevis (strain ATCC 367 / JCM 1170), Lactobacillus brevis thioesterase) MAANEFSETHRVVYYEADDTGQLTLAMLINLFVLVSEDQNDALGLSTAFVQSHGVGWVVTQYHLHIDELPRTGAQVTIKTRATAYNRYFAYREYWLLDDAGQVLAYGEGIWVTMSYATRKITTIPAEVMAPYHSEEQTRLPRLPRPDHFDEAVNQTLKPYTVRYFDIDGNGHVNNAHYFDWMLDVLPATFLRAHHPTDVKIRFENEVQYGHQVTSELSQAAALTTQHMIKVGDLTAVKATIQWDNR | more efficiently |  |  | 
4 | SEQ ID NO: 37: Mycobacterium massiliense carboxylate reductase (protein, Mycobacterium abscessus subsp. bolletii 2B-0307, Mycobacterium massiliense carboxylate reductase) MTNETNPQQEQLSRRIESLRESDPQFRAAQPDPAVAEQVLRPGLHLSEAIAALMTGYAERPALGERARELVIDQDGRTTLRLLPRFDTTTYGELWSRTTSVAAAWHHDATHPVKAGDLVATLGFTSIDYTVLDLAIMILGGVAVPLQTSAPASQWTTILAEAEPNTLAVSIELIGAAMESVRATPSIKQVVVFDYTPEVDDQREAFEAASTQLAGTGIALETLDAVIARGAALPAAPLYAPSAGDDPLALLIYTSGSTGAPKGAMHSENIVRRWWIREDVMAGTENLPMIGLNFMPMSHIMGRGTLTSTLSTGGTGYFAASSDMSTLFEDMELIRPTALALVPRVCDMVFQRFQTEVDRRLASGDTASAEAVAAEVKADIRDNLFGGRVSAVMVGSAPLSEELGEFIESCFELNLTDGYGSTEAGMVFRDGIVQRPPVIDYKLVDVPELGYFSTDKPHPRGELLLKTDGMFLGYYKRPEVTASVFDADGFYMTGDIVAELAHDNIEIIDRRNNVLKLSQGEFVAVATLEAEYANSPVVHQIYVYGSSERSYLLAVVVPTPEAVAAAKGDAAALKTTIADSLQDIAKEIQLQSYEVPRDFIIEPQPFTQGNGLLTGIAKLARPNLKAHYGPRLEQMYAEIAEQQAAELRALHGVDPDKPALETVLKAAQALLGVSSAELAADAHFTDLGGDSLSALSFSDLLRDIFAVEVPVGVIVSAANDLGGVAKFVDEQRHSGGTRPTAETVHGAGHTEIRAADLTLDKFIDEATLHAAPSLPKAAGIPHTVLLTGSNGYLGHYLALEWLERLDKTDGKLIVIVRGKNAEAAYGRLEEAFDTGDTELLAHFRSLADKHLEVLAGDIGDPNLGLDADTWQRLADTVDVIVHPAALVNHVLPYNQLFGPNVVGTAEIIKLAITTKIKPVTYLSTVAVAAYVDPTTFDEESDIRLISAVRPIDDGYANGYGNAKWAGEVLLREAHDLCGLPVAVFRSDMILAHSRYTGQLNVPDQFTRLILSLIATGIAPGSFYQAQTTGERPLAHYDGLPGDFTAEAITTLGTQVPEGSEGFVTYDCVNPHADGISLDNFVDWLIEAGYPIARIDNYTEWFTRFDTAIRGLSEKQKQHSLLPLLHAFEQPSAAENHGVVPAKRFQHAVQAAGIGPVGQDGTTDIPHLSRRLIVKYAKDLEQLGLL |  |  | accepted N7-acetyl-7-aminoheptanoate as substrate | accepted 7-hydroxyheptanoate as substrate
5 | 6TE: Lactobacillus delbrueckii thioesterase (protein, listed as Lactobacillus delbrueckii) MRYYKDYQLKYVDCGESGQLKLPRMIDLMMESSEGQLAPTLGGASAMKERGRGWVVTQYEFEFTSLPRAGQKVRVWTEAVGYNRFLSYRDFGIEDEAGKDLVIAHSQWVLFDLKSRKLLPSDDKIAEELGAPLLAKIPRFKKLRPKDDYKDEKVYRAYYYDLDSNHHVNNAHYLDWIVDSLPRDFVNSHEPKDLAIKFDKEIKYGDEVVCQVMQETEDSAVKTCHAITRQGELMALCEVNWQKMCFNRD | more efficiently |  |  | 
6 | SEQ ID NO: 29: Mycobacterium smegmatis carboxylate reductase (protein, Mycobacterium smegmatis (strain ATCC 700084 / mc(2)155), Mycobacterium smegmatis carboxylate reductase) MTSDVHDATDGVTETALDDEQSTRRIAELYATDPEFAAAAPLPAVVDAAHKPGLRLAEILQTLFTGYGDRPALGYRARELATDEGGRTVTRLLPRFDTLTYAQVWSRVQAVAAALRHNFAQPIYPGDAVATIGFASPDYLTLDLVCAYLGLVSVPLQHNAPVSRLAPILAEVEPRILTVSAEYLDLAVESVRDVNSVSQLVVFDHHPEVDDHRDALARAREQLAGKGIAVTTLDAIADEGAGLPAEPIYTADHDQRLAMILYTSGSTGAPKGAMYTEAMVARLWTMSFITGDPTPVINVNFMPLNHLGGRIPISTAVQNGGTSYFVPESDMSTLFEDLALVRPTELGLVPRVADMLYQHHLATVDRLVTQGADELTAEKQAGAELREQVLGGRVITGFVSTAPLAAEMRAFLDITLGAHIVDGYGLTETGAVTRDGVIVRPPVIDYKLIDVPELGYFSTDKPYPRGELLVRSQTLTPGYYKRPEVTASVFDRDGYYHTGDVMAETAPDHLVYVDRRNNVLKLAQGEFVAVANLEAVFSGAALVRQIFVYGNSERSFLLAVVVPTPEALEQYDPAALKAALADSLQRTARDAELQSYEVPADFIVETEPFSAANGLLSGVGKLLRPNLKDRYGQRLEQMYADIAATQANQLRELRRAAATQPVIDTLTQAAATILGTGSEVASDAHFTDLGGDSLSALTLSNLLSDFFGFEVPVGTIVNPATNLAQLAQHIEAQRTAGDRRPSFTTVHGADATEIRASELTLDKFIDAETLRAAPGLPKVTTEPRTVLLSGANGWLGRFLTLQWLERLAPVGGTLITIVRGRDDAAARARLTQAYDTDPELSRRFAELADRHLRVVAGDIGDPNLGLTPEIWHRLAAEVDLVVHPAALVNHVLPYRQLFGPNVVGTAEVIKLALTERIKPVTYLSTVSVAMGIPDFEEDGDIRTVSPVRPLDGGYANGYGNSKWAGEVLLREAHDLCGLPVATFRSDMILAHPRYRGQVNVPDMFTRLLLSLLITGVAPRSFYIGDGERPRAHYPGLTVDFVAEAVTTLGAQQREGYVSYDVMNPHDDGISLDVFVDWLIRAGHPIDRVDDYDDWVRRFETALTALPEKRRAQTVLPLLHAFRAPQAPLRGAPEPTEVFHAAVRTAKVGPGDIPHLDEALIDKYIRDLREFGLI |  |  | accepted N7-acetyl-7-aminoheptanoate as substrate | accepted 7-hydroxyheptanoate as substrate
